Patent publication US20100184134A1 (SUTRO BIOPHARMA, published 2010)
Changes are numbered by the printed parent chain. Names and notes keep the numbering of the source.

Columns and labels:
PheT K = molecular target: T1, PheT K (E. coli, UniProt P07395 1-795); test: IMAC co-purification after cell-free co-synthesis of PheS(A294G) and PheT variant
T1 construct: also called PheT R794K
T1 sequence: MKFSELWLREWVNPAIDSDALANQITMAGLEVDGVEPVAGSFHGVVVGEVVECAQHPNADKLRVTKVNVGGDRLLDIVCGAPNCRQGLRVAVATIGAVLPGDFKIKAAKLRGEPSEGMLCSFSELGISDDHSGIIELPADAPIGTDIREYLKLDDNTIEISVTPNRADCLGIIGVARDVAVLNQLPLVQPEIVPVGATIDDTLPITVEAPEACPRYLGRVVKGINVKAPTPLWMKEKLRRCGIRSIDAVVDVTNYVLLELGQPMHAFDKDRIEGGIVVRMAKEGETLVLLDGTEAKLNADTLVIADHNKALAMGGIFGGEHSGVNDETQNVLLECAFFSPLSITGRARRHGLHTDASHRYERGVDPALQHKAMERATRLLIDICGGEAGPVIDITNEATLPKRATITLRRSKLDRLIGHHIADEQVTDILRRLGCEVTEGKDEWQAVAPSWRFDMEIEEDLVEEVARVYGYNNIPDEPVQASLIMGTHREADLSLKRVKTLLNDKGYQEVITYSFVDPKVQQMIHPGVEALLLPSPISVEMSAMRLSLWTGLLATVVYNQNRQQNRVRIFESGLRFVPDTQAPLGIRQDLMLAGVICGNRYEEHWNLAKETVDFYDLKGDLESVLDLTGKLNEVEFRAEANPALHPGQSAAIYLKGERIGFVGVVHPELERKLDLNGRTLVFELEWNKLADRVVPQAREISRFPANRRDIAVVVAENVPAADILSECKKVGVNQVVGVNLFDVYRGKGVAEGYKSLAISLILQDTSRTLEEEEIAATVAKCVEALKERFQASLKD

PheT KV = molecular target: T2, PheT KV (E. coli, UniProt P07395 1-795); test: as above
T2 construct: also called PheT R794K A15V
T2 sequence: T1 sequence with A15V

PheT MP = molecular target: T3, PheT MP (E. coli, UniProt P07395 1-795); test: as above
T3 construct: also called PheT R794M R788P
T3 sequence: T1 sequence with R788P, K794M

PheT AP = molecular target: T4, PheT AP (E. coli, UniProt P07395 1-795); test: as above
T4 construct: also called PheT R794A A791P
T4 sequence: T1 sequence with A791P, K794A

[1] = molecular target: T5, E. coli PheT subunit of phenylalanyl-tRNA synthetase (E. coli, UniProt P07395 1-795); test: IMAC pull-down of cell-free produced PheRS(A294G)
T5 construct: also called PheT domain
T5 sequence: T1 sequence with K794R

Measured: binding result

B1: 6X His-tagged E. coli PheS(A294G) subunit of phenylalanyl-tRNA synthetase (enzyme)
chain: MSHLAELVASAKAAISQASDVAALDNVRVEYLGKKGHLTLQMTTLRELPPEERPAAGAVINEAKEQVQQALNARKAELESAALNARLAAETIDVSLPGRRIENGGLHPVTRTIDRIESFFGELGFTVATGPEIEDDYHNFDALNIPGHHPARADHDTFWFDTTRLLRTQTSGVQIRTMKAQQPPIRIIAPGRVYRNDYDQTHTPMFHQMEGLIVDTNISFTNLKGTLHDFLRNFFEEDLQIRFRPSYFPFTEPSAEVDVMGKNGKWLEVLGCGMVHPNVLRNVGIDPEVYSGFGFGMGMERLTMLRYGVTDLRSFFENDLRFLKQFK
notes: also called 6XHisPheS(A294G); PheS(A294G) domain
binds: all assays above
